Reference: article PMC9458429
pKd: −log10 of the molar value.

Experiments:
Assay in all cases: filter binding
[1] = tested on: 30S ribosomal subunit (Escherichia coli MRE600); conditions: Filter binding: 50 nM 32P-RNA in TAKM5 buffer (composition not given), 15 min at 37 C, nitrocellulose filtration, fluorescence titrations: pyrene, ex 341 nm …
[2] = tested on: 70S ribosome (Escherichia coli MRE600); conditions: Filter binding: 50 nM 32P-RNA in TAKM5 buffer (composition not given), 15 min at 37 C, nitrocellulose filtration, fluorescence titrations: pyrene, ex 341 nm …
[3] = tested on: 40S ribosomal subunit ((HeLa cells)); conditions: Filter binding: 50 nM 32P-RNA in TAKM5 buffer (composition not given), 15 min at 37 C, nitrocellulose filtration; fluorescence titrations: pyrene, ex 341 nm …

| Sequence | pKd [1] | pKd [2] | also measured |
| --- | --- | --- | --- |
| AAAGCAAAAAUGUGAUCUUGCUUGUAAAUACAAUUUUGAGAGGUUAAUAAAUUACAAGUAGUGCUAUUUUUGUAUUUAGGUUAGCUAUUUAGCUUUACGUUCCAGGAUGCCUAGUGGCAGCCCCACAAUAUCCAGGAAGCCCUCUCUGCGGUUUUUCAGAUUAGGUAGUCGAAAAACCUAAGAAAUUUACCUGCUACAUUUCAAGAUAAA [CrPV IGR IRES WT] | 6.96 | 7.16 | pKd [3]: 7.85 |
| AAAGCAAAAAUGUGAUCUUGCUUGUAAAUACAAUUUUGAGAGGUUAAUAAAUUACAAGUAGUGCUAUUUUUGUAUUUAGGUUAGCUAUUUAGCUUUACGUUCCAGGAUGCCUAGUGGCAGCCCCACAAUAUCCAGGAAGCCCUCUCUGCGGUUUUUCAGAUUAGGUAGUCGAAAAACCUAAGAAAUUUAGGUGCUACAUUUCAAGAUAAA [CrPV IGR IRES PK1_K/O] | 7.26 | 7.04 | pKd [3]: 8.40 |
| AAAGCAAAAAUGUGAUCUUGCUUGUAAAUACAAUUUUGAGAGGUUAAUAAAUUACAAGUAGUGCUAUUUUUGUAUUUAGGUUAGCUAUUUAGCUUUACGUUCCAGGAUGCCUAGUGGCAGCCCCACAAUAUCCAGGAAGCGGAGAGUGCGGUUUUUCAGAUUAGGUAGUCGAAAAACCUAAGAAAUUUACCUGCUACAUUUCAAGAUAAA [CrPV IGR IRES PK2_K/O] | 7.13 | 7.00 | – |
| AAAGCAAAAAUGUGAUCUUGCUUGUAAAUACAAUUUUGAGAGGUUAAUAAAUUACAAGUAGUGCUAUUUUUGUAUUUAGGUUAGCUAUUUAGCUUUACGUUCCAGGAUGCCUAGUGGCAGCCCGUGAAUAUCCAGGAAGCCCUCUCUGCGGUUUUUCAGAUUAGGUAGUCGAAAAACCUAAGAAAUUUACCUGCUACAUUUCAAGAUAAA [CrPV IGR IRES PK3_K/O] | 7.32 | 7.05 | – |
| AAAGCAAAAAUGUGAUCUUGCUUGUAAAUACAAUUUUGAGAGGUUAAUAAAUUACAAGUAGUGCUAUUUUUGUAUUUAGGUUAGCUAUUUAGCUUUACGUUCCAGGAUGCCUAGUGGCAGCCGGUGAAUAUCCAGGAAGCCCUCUCUGCGGUUUUUCAGAUUAGGUAGUCGAAAAACCUAAGAAAUUUAGGUGCUACAUUUCAAGAUAAA [CrPV IGR IRES PK1+3_K/O] | 7.28 | 7.11 | – |
| AAAGCAAAAAUGUGAUCUUGCUUGUAAAUACAAUUUUGAGAGGUUAAUAAAUUACAAGUAGUGCUAUUUUUGUAUUUAGGUUAGCUAUUUAGCUUUACGUUCCAGGAUGCCUAGUGGCAGCCGGUGAAUAUCCAGGAAGCGGAGAGUGCGGUUUUUCAGAUUAGGUAGUCGAAAAACCUAAGAAAUUUAGGUGCUACAUUUCAAGAUAAA [CrPV IGR IRES PK1+2+3_K/O] | 7.32 | 7.10 | – |
| GAGCGGUUUCUGGAAUACUAUAUGUAAGUAUAGUGUUCUGGAGGCAUCAUUCUAUGGUUACCCAUCAUUAGAGGAAAUUUCCAAUAAACUCUGGUGUAAGGCUUAGAGUGAUGGUCGAGGUGCCCUAUUUAGGGUGAGGAGCCUCGGUGGCAGCCCCACCAAAUCCUCUAUUGGAUAGGAACAGCUGUACUGGGCAGUUACAGCAGUCGUAUGGUAACACAUGCGGCGUUCCGAAAUACCAUGCCUGGCGAUUCACAACAAGAA [IAPV IGR IRES WT] | 7.03 | 7.30 | – |
| GAGCGGUUUCUGGAAUACUAUAUGUAAGUAUAGUGUUCUGGAGGCAUCAUUCUAUGGUUACCCAUCAUUAGAGGAAAUUUCCAAUAAACUCUGGUGUAAGGCUUAGAGUGAUGGUCGAGGUGCCCUAUUUAGGGUGAGGAGCCUCGGUGGCAGCCCCACCAAAUCCUCUAUUGGAUAGGAACAGCUGUACUGGGCAGUUACAGCAGUCGUAUGGUAACACAUGCGGCGUUCCGAAAUACCAUGGGUGGCGAUUCACAACAAGAA [IAPV IGR IRES PK1_K/O] | 7.06 | 7.17 | – |
| GAGCGGUUUCUGGAAUACUAUAUGUAAGUAUAGUGUUCUGGAGGCAUCAUUCUAUGGUUACCCAUCAUUAGAGGAAAUUUCCAAUAAACUCUGGUGUAAGGCUUAGAGUGAUGGUCGAGGUGCCCUAUUUAGGGUGAGGAGCCUCGGUGGCAGCCCCACCAAAUCCUCUUAACCAUAGGAACAGCUGUACUGGGCAGUUACAGCAGUCGUAUGGUAACACAUGCGGCGUUCCGAAAUACCAUGCCUGGCGAUUCACAACAAGAA [IAPV IGR IRES PK2_K/O] | 7.09 | 7.23 | – |
| GAGCGGUUUCUGGAAUACUAUAUGUAAGUAUAGUGUUCUGGAGGCAUCAUUCUAUGGUUACCCAUCAUUAGAGGAAAUUUCCAAUAAACUCUGGUGUAAGGCUUAGAGUGAUGGUCGAGGUGCCCUAUUUAGGGUGAGGAGCCUCGGUGGCAGCCCCUGGAAAUCCUCUAUUGGAUAGGAACAGCUGUACUGGGCAGUUACAGCAGUCGUAUGGUAACACAUGCGGCGUUCCGAAAUACCAUGCCUGGCGAUUCACAACAAGAA [IAPV IGR IRES PK3_K/O] | 6.99 | 7.23 | – |
| GAGCGGUUUCUGGAAUACUAUAUGUAAGUAUAGUGUUCUGGAGGCAUCAUUCUAUGGUUACCCAUCAUUAGAGGAAAUUUCCAAUAAACUCUGGUGUAAGGCUUAGAGUGAUGGUCGAGGUGCCCUAUUUAGGGUGAGGAGCCUCGGUGGCAGCCCCUGGAAAUCCUCUAUUGGAUAGGAACAGCUGUACUGGGCAGUUACAGCAGUCGUAUGGUAACACAUGCGGCGUUCCGAAAUACCAUGGGUGGCGAUUCACAACAAGAA [IAPV IGR IRES PK1+3_K/O] | 7.10 | 7.19 | – |
| GAGCGGUUUCUGGAAUACUAUAUGUAAGUAUAGUGUUCUGGAGGCAUCAUUCUAUGGUUACCCAUCAUUAGAGGAAAUUUCCAAUAAACUCUGGUGUAAGGCUUAGAGUGAUGGUCGAGGUGCCCUAUUUAGGGUGAGGAGCCUCGGUGGCAGCCCCUGGAAAUCCUCUUAACCAUAGGAACAGCUGUACUGGGCAGUUACAGCAGUCGUAUGGUAACACAUGCGGCGUUCCGAAAUACCAUGGGUGGCGAUUCACAACAAGAA [IAPV IGR IRES PK1+2+3_K/O] | 7.14 | 7.14 | – |
| GCGCGGAUGCUCAGUCGGUAGAGCAGGGGAUUGAAAAUCCCCGUGUCCUUGGUUCGAUUCCGAGUCCGCGCACCA [tRNAPhe] | – | – | pKd ([1]; only 10% bound): 7.46 |
| GGAUACGCACAAUAAGGCUAUUGUACGUAUGCAAAUUAAUAAUAAAGGAGAGUAGCAAUGUCAUUCGAAUUACCUGCACUACCAUAUGCUAAAGAUGCUCUGGCACCGCACAUUUCUGCGG [sodB 5' UTR RNA] | – | – | pKd ([1]; 41% bound): 7.89; pKd ([2]; 56% bound): 7.33 |
| GGUACGAGUAGAAUACUGCCGCUUAACGUCGCGUAAAUUGUUUAACACUUUGCGUAACGUACACUGGGAUCGCUGAAUUAGAGAUCGGCGUCCUUUCAUUCUAUAUACUUUGGAGUUUUAAAAUGUCUCAAGUACUGAAGCAACAGCUAAAAUCGUUUCUGAGUUUGGUCGUGACGCAAACGACACC [rpsO 5' UTR RNA] | – | – | pKd ([1]; 39% bound): 8.00; pKd ([2]; 44% bound): 7.03 |
